{
  "source": "patent US12607633B2",
  "about": "(priority 2016, dated 2026)",
  "key": {"[1]": {"biological_target": "VEEV nsP2 protease cleavage of TRIM14 (Venezuelan equine encephalitis virus, UniProt P27282)", "sequence (P27282 536-1329 limits assumed)": "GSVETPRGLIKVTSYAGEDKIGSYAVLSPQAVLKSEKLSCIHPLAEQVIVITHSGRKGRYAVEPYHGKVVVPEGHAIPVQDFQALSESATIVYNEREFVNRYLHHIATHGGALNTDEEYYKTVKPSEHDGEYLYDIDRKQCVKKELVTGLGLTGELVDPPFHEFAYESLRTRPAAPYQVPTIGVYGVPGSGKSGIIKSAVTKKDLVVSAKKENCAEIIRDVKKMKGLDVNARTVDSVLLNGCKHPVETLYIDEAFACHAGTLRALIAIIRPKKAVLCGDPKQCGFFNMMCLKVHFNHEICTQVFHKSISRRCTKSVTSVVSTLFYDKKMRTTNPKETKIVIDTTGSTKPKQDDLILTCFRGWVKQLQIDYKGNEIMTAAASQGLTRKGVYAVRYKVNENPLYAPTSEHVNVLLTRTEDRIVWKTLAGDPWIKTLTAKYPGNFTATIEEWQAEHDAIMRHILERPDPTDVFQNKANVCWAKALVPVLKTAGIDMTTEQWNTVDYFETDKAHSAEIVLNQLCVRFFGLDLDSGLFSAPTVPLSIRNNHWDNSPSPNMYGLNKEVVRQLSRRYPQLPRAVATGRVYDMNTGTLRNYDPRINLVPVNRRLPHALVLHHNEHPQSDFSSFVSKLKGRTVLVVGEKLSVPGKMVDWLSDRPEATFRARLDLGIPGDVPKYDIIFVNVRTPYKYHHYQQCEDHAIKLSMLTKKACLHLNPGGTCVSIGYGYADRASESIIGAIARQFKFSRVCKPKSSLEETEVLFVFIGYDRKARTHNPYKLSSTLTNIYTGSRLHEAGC", "type": "cell-based"}, "VEEV": {"system": "VEEV", "type": "cell-based, Venezuelan equine encephalitis virus (VEEV)"}, "ZIKV ns2B-ns3 protease": {"biological_target": "ZIKV ns2B-ns3 protease (Zika virus, UniProt A0A024B7W1, C1582S/C1645S/R1467A/R1531G)", "type": "biochemical"}, "[2]": {"biological_target": "EEEV nsP2 cysteine protease (Eastern equine encephalitis virus, UniProt Q4QXJ8)", "type": "biochemical"}, "[3]": {"biological_target": "T1, VEEV nsP2 cysteine protease (Venezuelan equine encephalitis virus, UniProt P27282)", "details": "pH 7"}, "[4]": {"biological_target": "T1, VEEV nsP2 cysteine protease"}, "[5]": {"biological_target": "CHIKV nsP2 cysteine protease (Chikungunya virus, UniProt Q8JUX6, A1139V/C1177Y/S1178N)"}, "[6]": {"biological_target": "WEEV nsP2 cysteine protease (Western equine encephalitis virus, UniProt P13896)"}},
  "note": "“Also recorded” adds a separate entry of the source.",
  "data": [
    {"compound": "CCCNC(=O)[C@H]1O[C@@H]1C(=O)N[C@H](C(=O)N1CCC[C@H]1C(=O)OC)[C@@H](C)CC", "note": "[CA074 methyl ester]", "values": [
      {"measurement": "TRIM14 cleavage product (CP) in infected cell lysates (immunoblot)", "setting": "[1]", "result": "halted; also recorded: absent; also recorded: no longer present"},
      {"measurement": "VEEV titers / viral replication (plaque assays)", "setting": "VEEV", "result": "halted viral replication; also recorded: decreased significantly"}
    ]},
    {"compound": "CFP-FOXG1-YFP: CFP-YFP substrate, 21-residue human FOXG1 sequence RSTTSRAKLAFKR↓GARLTSTG ({CFP}-RSTTSRAKLAFKRGARLTSTG-{YFP})", "values": [
      {"measurement": "Proteases cutting the substrate: ZIKV ns2B-ns3 protease", "setting": "ZIKV ns2B-ns3 protease", "result": "cleavage; also recorded: ZIKV ns2B-ns3 protease"}
    ]},
    {"compound": "CFP-NT5M-YFP: CFP-YFP substrate, 34-residue human NT5M sequence MIRLGGWCARRLCSAAVPAGRR↓GAAGGLGLAGGR ({CFP}-MIRLGGWCARRLCSAAVPAGRRGAAGGLGLAGGR-{YFP}; cysteine pairing not given here)", "values": [
      {"measurement": "Proteases cutting the substrate: ZIKV ns2B-ns3 protease", "setting": "ZIKV ns2B-ns3 protease", "result": "cleavage; also recorded: ZIKV ns2B-ns3 protease"}
    ]},
    {"compound": "CFP-SFRP1-YFP: CFP-YFP substrate, 25-residue human SFRP1 sequence MGIGRSEGGRR↓GAALGVLLALGAAL ({CFP}-MGIGRSEGGRRGAALGVLLALGAAL-{YFP})", "values": [
      {"measurement": "Proteases cutting the substrate: ZIKV ns2B-ns3 protease", "setting": "ZIKV ns2B-ns3 protease", "result": "cleavage; also recorded: ZIKV ns2B-ns3 protease"}
    ]},
    {"compound": "CFP-SFRP2-YFP: Uncleavable control CFP-YFP substrate, 34 residues MLQGPGSLLLLFLASHCCLGSARGLFLFGQPDFS ({CFP}-MLQGPGSLLLLFLASHCCLGSARGLFLFGQPDFS-{YFP}; cysteine pairing not given here)", "values": [
      {"measurement": "Proteases cutting the substrate: ZIKV ns2B-ns3 protease", "setting": "ZIKV ns2B-ns3 protease", "result": "Control, not cleaved by ZIKV"}
    ]},
    {"compound": "CFP-SFRP4-YFP: Uncleavable control CFP-YFP substrate, 34 residues MFLSILVALCLWLHLALGVRGAPCEAVRIPMCRH ({CFP}-MFLSILVALCLWLHLALGVRGAPCEAVRIPMCRH-{YFP}; cysteine pairing not given here)", "values": [
      {"measurement": "Proteases cutting the substrate: ZIKV ns2B-ns3 protease", "setting": "ZIKV ns2B-ns3 protease", "result": "Control, not cleaved by ZIKV"}
    ]},
    {"compound": "CFP-TRIM14-YFP (SEQ ID NO: 4): CFP-YFP FRET substrate, 25 residues of human TRIM14 DCFATGRHYWEVDVQEAGA↓GWWVGA (DCFATGRHYWEVDVQEAGAGWWVGA)", "values": [
      {"measurement": "Extent of cleavage of TRIM14 substrate by EEEV nsP2 protease (SDS-PAGE)", "setting": "[2]", "result": "did not show significant amounts of cleavage"},
      {"measurement": "Km", "setting": "[3]", "result": "21 ± 2", "unit": "µM"},
      {"measurement": "Vmax", "setting": "[3]", "result": "0.056 ± 0.002", "unit": "U/mg"},
      {"measurement": "Proteases cutting the substrate: VEEV nsP2 cysteine protease", "setting": "[4]", "result": "VEEV nsP2 cysteine protease"},
      {"measurement": "Extent of cleavage of TRIM14 substrate by CHIKV nsP2 protease (SDS-PAGE)", "setting": "[5]", "result": "did not show evidence of significant cleavage"},
      {"measurement": "Extent of cleavage of TRIM14 substrate by WEEV nsP2 protease (SDS-PAGE)", "setting": "[6]", "result": "did not show significant amounts of cleavage"}
    ]}
  ]
}
